According to patent US20070071744A1 (published 2007):
Ends that are not written are not given here.

Assays:
Test in all cases: PepSpot peptide array
[1] = target: T1, peptide 42 (human)
T1 peptide: Ac-AGRYRCSYQNGSL
Protocol: (§1) The peptides were synthesized on a cellulose membrane in a stepwise manner resulting in a defined arrangement (peptide array) and are covalently bound to the cellulose membrane. Binding assays were performed directly on the peptide array. In general an antigen peptide array is incubated with blocking buffer for several hours to reduce non-specific binding of proteins or antibodies. It follows the incubation with a primary (antigen peptide-binding) antibody in blocking buffer and an incubation with a horseradish peroxidase (HRP)-labelled secondary antibody, which binds selectively the primary antibody. Alternatively a HRP-labelled primary antibody in blocking buffer can be used.
(§2) A short T(Tween)-TBS-buffer washing directly after the incubation of the antigen peptide array with the secondary protein or antibody or the HRP-labelled primary antibody followed by the first chemiluminescence experiment is made to get an first overview which antigen peptides do bind the primary antibody. Several buffer washing steps follow (T-TBS- and TBS-buffer) to reduce false positive binding (unspecific antibody binding to the cellulose membrane itself). After these washing steps the final chemiluminescence analysis is performed. The data were analysed with an imaging system showing the signal intensity (Light units, LU) as single measurements for each peptide. In order to evaluate non-specific binding of secondary antibodies, incubations using the secondary antibody have to be performed in the absence of the primary antibody as control incubation.

[2] = target: T2, peptide 40 (human)
T2 peptide: Ac-KRSLAGRYRCSYQ
Protocol: as §1, §2

[3] = target: T3, peptide 47 (human)
T3 peptide: Ac-GSLWSLPSDQLEL
Protocol: as §1, §2

[4] = target: T4, peptide 50 (human)
T4 peptide: Ac-PSDQLELVATGVF
Protocol: as §1, §2

[5] = target: T5, peptide 100 (human)
T5 peptide: Ac-ELVVTGTSVTPSR
Protocol: as §1, §2

[6] = target: T6, peptide 95 (human)
T6 peptide: Ac-YLWSAPSDPLELV
Protocol: as §1, §2

[7] = target: T7, peptide 125 (human)
T7 peptide: Ac-TSPKESDSPAGPA
Protocol: as §1, §2

[8] = target: T8, peptide 45 (human)
T8 peptide: Ac-SYQNGSLWSLPSD
Protocol: as §1, §2

[9] = target: T9, peptide 86 (human)
T9 peptide: Ac-TAAHSGTYRCYSF
Protocol: as §1, §2

[10] = target: T10, peptide 103 (human)
T10 peptide: Ac-TSVTPSRLPTEPP
Protocol: as §1, §2

[11] = target: T11, peptide 98 (human)
T11 peptide: Ac-SDPLELVVTGTSV
Protocol: as §1, §2

[12] = target: T12, peptide 99 (human)
T12 peptide: Ac-PLELVVTGTSVTP
Protocol: as §1, §2

[13] = target: T13, peptide 104 (human)
T13 peptide: Ac-VTPSRLPTEPPSS
Protocol: as §1, §2

[14] = target: T14, peptide 89 (human)
T14 peptide: Ac-TYRCYSFSSRDPY
Protocol: as §1, §2

[15] = target: T15, peptide 91 (human)
T15 peptide: Ac-YSFSSRDPYLWSA
Protocol: as §1, §2

[16] = target: T16, peptide 28 (human)
T16 peptide: Ac-DLYRLEKLSSSRY
Protocol: as §1, §2

[17] = target: T17, peptide 58 (human)
T17 peptide: Ac-SLSAQPGPAVSSG
Protocol: as §1, §2

[18] = target: T18, peptide 87 (human)
T18 peptide: Ac-AHSGTYRCYSFSS
Protocol: as §1, §2

[19] = target: T19, peptide 34 (human)
T19 peptide: Ac-YQDQAVLFIPAMK
Protocol: as §1, §2

[20] = target: T20, peptide 14 (human)
T20 peptide: Ac-KPSLQALPSSLVP
Protocol: as §1, §2

[21] = target: T21, peptide 44 (human)
T21 peptide: Ac-RCSYQNGSLWSLP
Protocol: as §1, §2

[22] = target: T22, peptide 41 (human)
T22 peptide: Ac-SLAGRYRCSYQNG
Protocol: as §1, §2

[23] = target: T23, peptide 12 (human)
T23 peptide: Ac-GPLPKPSLQALPS
Protocol: as §1, §2

[24] = target: T24, peptide 48 (human)
T24 peptide: Ac-LWSLPSDQLELVA
Protocol: as §1, §2

[25] = target: T25, peptide 119 (human)
T25 peptide: Ac-KVFTTETSRSITT
Protocol: as §1, §2

[26] = target: T26, peptide 105 (human)
T26 peptide: Ac-PSRLPTEPPSSVA
Protocol: as §1, §2

[27] = target: T27, peptide 127 (human)
T27 peptide: Ac-ESDSPAGPARQYY
Protocol: as §1, §2

[28] = target: T28, peptide 61 (human)
T28 peptide: Ac-GPAVSSGGDVTLQ
Protocol: as §1, §2

[29] = target: T29, peptide 77 (human)
T29 peptide: Ac-PYKNPERWYRASF
Protocol: as §1, §2

[30] = target: T30, peptide 122 (human)
T30 peptide: Ac-TSRSITTSPKESD
Protocol: as §1, §2

[31] = target: T31, peptide 101 (human)
T31 peptide: Ac-VVTGTSVTPSRLP
Protocol: as §1, §2

[32] = target: T32, peptide 94 (human)
T32 construct: also called DPYLWSAPSDPLE
T32 peptide: Ac-DPYLWSAPSDPLE
Protocol: as §1, §2

[33] = target: T33, peptide 116 (human)
T33 peptide: Ac-TVSFTNKVFTTET
Protocol: as §1, §2

[34] = target: T34, peptide 114 (human)
T34 peptide: Ac-TAELTVSFTNKVF
Protocol: as §1, §2

[35] = target: T35, peptide 57 (human)
T35 peptide: Ac-KPSLSAQPGPAVS
Protocol: as §1, §2

[36] = target: T36, peptide 55 (human)
T36 peptide: Ac-GVFAKPSLSAQPG
Protocol: as §1, §2

[37] = target: T37, peptide 83 (human)
T37 peptide: Ac-FPIITVTAAHSGT
Protocol: as §1, §2

[38] = target: T38, peptide 93 (human)
T38 peptide: Ac-SRDPYLWSAPSDP
Protocol: as §1, §2

[39] = target: T39, peptide 1 (human)
T39 peptide: Ac-MSPSPTALFCLGL
Protocol: as §1, §2

[40] = target: T40, peptide 68 (human)
T40 peptide: Ac-QTRYGFDQFALYK
Protocol: as §1, §2

[41] = target: T41, peptide 75 (human)
T41 peptide: Ac-GDPAPYKNPERWY
Protocol: as §1, §2

[42] = target: T42, peptide 9 (human)
T42 peptide: Ac-RVPAQSGPLPKPS
Protocol: as §1, §2

B1: monoclonal antibody hGP 5C4 (antibody, V domains shown)
VH: EVKLQESGGGLVQPGRSLKLSCTASGFTFSDYFMSWVRQAPTRGLEWVASISSGGASAYWRDSVKGRFTISRDNAKSALYLQMDSLRSEDTATYFCARGELDFDYWGQGVMVAVSS
VL: ADPNSTLLSASVGDRVTLNCTASQNVYKNLAWYQQKLGEAPRLLLYSANSQTGIPSRFSGSGSGPDFTLTISSLQPEDVASYFCQQYYSGNTFGAGTKLELKR
notes: Rat hybridoma antibody (Lou/C rats), heavy chain gamma 2a, light chain kappa; also called ab 5C4; anti-GPVI mAb 5C4
LU (Light Units) [1]: 41 LU
LU (Light Units) [2]: 139 LU
LU (Light Units) [3]: 79 LU
LU (Light Units) [4]: 38 LU
LU (Light Units) [5]: 114 LU
LU (Light Units) [6]: 120 LU
LU (Light Units) [7]: 25 LU
LU (Light Units) [8]: 12 LU
LU (Light Units) [9]: 58 LU
LU (Light Units) [10]: 50 LU
LU (Light Units) [11]: 141 LU
LU (Light Units) [12]: 202 LU
LU (Light Units) [13]: 91 LU
LU (Light Units) [14]: 46 LU
LU (Light Units) [15]: 67 LU
LU (Light Units) [16]: 179 LU
LU (Light Units) [17]: 110 LU
LU (Light Units) [18]: 93 LU
LU (Light Units) [19]: 125 LU
LU (Light Units) [20]: 1420 LU
LU (Light Units) [21]: 9 LU
LU (Light Units) [22]: 8 LU
LU (Light Units) [23]: 2980 LU
LU (Light Units) [24]: 47 LU
LU (Light Units) [25]: 287 LU
LU (Light Units) [26]: 33 LU
LU (Light Units) [27]: 101 LU
LU (Light Units) [28]: 71 LU
LU (Light Units) [29]: 97 LU
LU (Light Units) [30]: 195 LU
LU (Light Units) [31]: 211 LU
LU (Light Units) [32]: 63 LU
LU (Light Units) [33]: 224 LU
LU (Light Units) [34]: 226 LU
LU (Light Units) [35]: 128 LU
LU (Light Units) [36]: 810 LU
LU (Light Units) [37]: 75 LU
LU (Light Units) [38]: 107 LU
LU (Light Units) [39]: 149 LU
LU (Light Units) [40]: 84 LU
LU (Light Units) [41]: 95 LU
LU (Light Units) [42]: 1100 LU
